Source: PMC11811267 (Journal of Separation Science, 2025)

Columns and labels:
Format in all cases: in vitro ADME
[1] = Autosampler (re-injection) stability at 4°C for 24 h; settings: autosampler (AS) 4°C, triplicate, 2D-LC-MS/MS
Method: (§1) The stability tests of all insulins were performed at two concentration levels (193 and 7752 pg/mL). One set of tests was performed with artificial plasma and the other set with artificial plasma containing 1% PIC. Each concentration level was tested in triplicate. These QC samples were quantified using an artificial plasma calibration curve without PIC, and the obtained concentrations were compared with the nominal concentrations of the low quality control (LQC) and high quality control (HQC), which were set to 100%. To evaluate the stability of insulins in artificial plasma containing 1% PIC, we considered the concentration measured at time zero as the baseline (100%). All subsequent changes in concentration were calculated relative to this initial measurement.
(§2) Short‐term stability, long‐term stability, and freeze‐thaw stability were evaluated in this study. LQC and HQC samples were stored at room temperature and in a refrigerator for 3, 6, and 24 h to assess short‐term (bench‐top) stability and at 4°C in the autosampler for 24 h to assess re‐injection stability.

[2] = Freeze-thaw stability in artificial plasma after storage at −80°C; settings: stored at −80°C, triplicate, 2D-LC-MS/MS; for 24 h, change (%): cycle at 24 h; for 48 h, change (%): cycle at 48 h; for 72 h, change (%): cycle at 72 h
Method: as §1, §2

[3] = Long-term stability in artificial plasma at −20°C; settings: triplicate, 2D-LC-MS/MS
Method: as §1, §2

[4] = Long-term stability in artificial plasma at −80°C; settings: triplicate, 2D-LC-MS/MS
Method: as §1, §2

[5] = extracted samples from artificial plasma with 1% PIC, 193 pg/mL, % of concentration at time zero (=100%)
[6] = extracted samples from artificial plasma without PIC, 193 pg/mL, % of nominal concentration (=100%)
[7] = extracted samples from artificial plasma without PIC, 7752 pg/mL, % of nominal concentration (=100%)
[8] = artificial plasma (BZ273) with 1% PIC, 193 pg/mL, % of concentration at time zero
[9] = artificial plasma (BZ273) with 1% PIC, 7752 pg/mL, % of concentration at time zero
[10] = artificial plasma (BZ273) without PIC, 193 pg/mL, % of nominal concentration
[11] = artificial plasma (BZ273) without PIC, 7752 pg/mL, % of nominal concentration
[12] = extracted samples from artificial plasma with 1% PIC, 7752 pg/mL, % of concentration at time zero (=100%)
[13] = artificial plasma (BZ273) without PIC, 7752 pg/mL, % of nominal concentration, listed as Insulin aspart

glulisine
24 h AS, change (%) [1, 5]: 93.2% | 24 h AS, change (%) [1, 6]: 97.6% | 24 h AS, change (%) [1, 7]: 82.2% | 24 h, change (%) [2, 8]: 79.0% | 24 h, change (%) [2, 9]: 93.1% | 24 h, change (%) [2, 10]: 99.0% | 24 h, change (%) [2, 11]: 92.3% | 48 h, change (%) [2, 8]: 106.9% | 48 h, change (%) [2, 9]: 119.5% | 48 h, change (%) [2, 11]: 95.2% | 72 h, change (%) [2, 8]: 92.4% | 72 h, change (%) [2, 9]: 95.0% | 72 h, change (%) [2, 10]: 106.5% | 72 h, change (%) [2, 11]: 81.1% | 1 week, change (%) [3, 8]: 51.7% | 1 week, change (%) [3, 9]: 55.6% | 1 week, change (%) [3, 10]: 99.7% | 1 week, change (%) [3, 11]: 86.2% | 2 weeks, change (%) [3, 8]: 36.7% | 2 weeks, change (%) [3, 9]: 143.0% | 2 weeks, change (%) [3, 11]: 84.0% | 3 weeks, change (%) [3, 8]: 29.2% | 3 weeks, change (%) [3, 9]: 31.5% | 3 weeks, change (%) [3, 10]: 84.8% | 3 weeks, change (%) [3, 11]: 79.8% | 1 week, change (%) [4, 9]: 88.1% | 1 week, change (%) [4, 10]: 103.5% | 1 week, change (%) [4, 11]: 84.5% | 2 weeks, change (%) [4, 9]: 117.9% | 2 weeks, change (%) [4, 10]: 102.7% | 2 weeks, change (%) [4, 11]: 83.7% | 3 weeks, change (%) [4, 8]: 79.1% | 3 weeks, change (%) [4, 9]: 95.2% | 3 weeks, change (%) [4, 10]: 98.8% | 3 weeks, change (%) [4, 11]: 75.6%

detemir
24 h AS, change (%) [1, 5]: <LLOQ | 24 h AS, change (%) [1, 12]: 66.0% | 24 h AS, change (%) [1, 6]: 98.4% | 24 h AS, change (%) [1, 7]: 93.7% | 24 h, change (%) [2, 8]: 115.2% | 24 h, change (%) [2, 9]: 375.0% | 24 h, change (%) [2, 10]: 253.5% | 24 h, change (%) [2, 11]: 168.5% | 48 h, change (%) [2, 8]: 140.6% | 48 h, change (%) [2, 9]: 344.2% | 48 h, change (%) [2, 10]: 349.6% | 48 h, change (%) [2, 11]: 195.4% | 72 h, change (%) [2, 8]: 116.7% | 72 h, change (%) [2, 9]: 285.9% | 72 h, change (%) [2, 10]: 243.7% | 72 h, change (%) [2, 11]: 161.5% | 1 week, change (%) [3, 8]: <LLOQ | 1 week, change (%) [3, 9]: 71.2% | 1 week, change (%) [3, 10]: <LLOQ | 1 week, change (%) [3, 11]: 27.0% | 2 weeks, change (%) [3, 8]: <LLOQ | 2 weeks, change (%) [3, 9]: 71.8% | 2 weeks, change (%) [3, 10]: <LLOQ | 2 weeks, change (%) [3, 11]: 24.8% | 3 weeks, change (%) [3, 8]: <LLOQ | 3 weeks, change (%) [3, 9]: 62.2% | 3 weeks, change (%) [3, 10]: <LLOQ | 3 weeks, change (%) [3, 11]: 21.9% | 1 week, change (%) [4, 8]: <LLOQ | 1 week, change (%) [4, 9]: 139.1% | 1 week, change (%) [4, 10]: 64.2% | 1 week, change (%) [4, 11]: 63.2% | 2 weeks, change (%) [4, 8]: <LLOQ | 2 weeks, change (%) [4, 9]: 173.5% | 2 weeks, change (%) [4, 10]: 50.5% | 2 weeks, change (%) [4, 11]: 54.7% | 3 weeks, change (%) [4, 8]: <LLOQ | 3 weeks, change (%) ([4]; artificial plasma (BZ273) with 1% PIC, 193 pg/mL, % of concentration at time zero, listed as Insulin detemir): < LLOQ | 3 weeks, change (%) [4, 9]: 154.5% | 3 weeks, change (%) [4, 10]: 34.1% | 3 weeks, change (%) [4, 11]: 49.4%

insulin aspart
24 h AS, change (%) [1, 12]: 125.7% | 24 h AS, change (%) [1, 6]: 92.6% | 24 h, change (%) [2, 8]: 111.6% | 24 h, change (%) [2, 9]: 117.4% | 24 h, change (%) [2, 10]: 90.4% | 24 h, change (%) [2, 11]: 100.00% | 24 h, change (%) [2, 13]: 100.0% | 48 h, change (%) [2, 8]: 111.6% | 48 h, change (%) [2, 9]: 115.5% | 48 h, change (%) [2, 10]: 98.1% | 72 h, change (%) [2, 8]: 93.7% | 72 h, change (%) [2, 9]: 99.8% | 72 h, change (%) [2, 10]: 85.7% | 72 h, change (%) [2, 11]: 92.10% | 72 h, change (%) [2, 13]: 92.1% | 1 week, change (%) [3, 8]: 70.7% | 1 week, change (%) [3, 9]: 72.2% | 1 week, change (%) [3, 10]: 105.6% | 1 week, change (%) [3, 11]: 104.3% | 2 weeks, change (%) [3, 8]: 58.4% | 2 weeks, change (%) [3, 9]: 62.5% | 2 weeks, change (%) [3, 10]: 107.3% | 2 weeks, change (%) [3, 11]: 100.2% | 3 weeks, change (%) [3, 8]: 39.5% | 3 weeks, change (%) [3, 9]: 35.8% | 3 weeks, change (%) [3, 10]: 101.4% | 3 weeks, change (%) [3, 11]: 95.2% | 1 week, change (%) [4, 8]: 116.5% | 1 week, change (%) [4, 9]: 123.4% | 1 week, change (%) [4, 10]: 106.0% | 1 week, change (%) [4, 11]: 104.7% | 2 weeks, change (%) [4, 8]: 99.6% | 2 weeks, change (%) [4, 9]: 106.6% | 2 weeks, change (%) [4, 11]: 97.2% | 3 weeks, change (%) [4, 8]: 93.4% | 3 weeks, change (%) [4, 9]: 108.9% | 3 weeks, change (%) [4, 10]: 97.8% | 3 weeks, change (%) [4, 11]: 92.8%
